Results from the supplement of paper PMC10567573.

B1: JUNB (parent)
chain: FVKALDDLHKMNHVTPPNVSLGAT
B2: MGC27345 (parent)
chain: KYMPHLCQDSSGEVSCQCQLHPPR

Variants of: B1
Assay: protein stability index of a GFP-peptide fusion (GPS, HEK-293T) (PSI 1-6); higher = more stable
Details: c terminus: a fixed tail appended
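Also: lentivirally expressed fusions sorted by FACS into six bins by GFP to DsRed ratio, PSI derived from sequencing read proportions per bin multiplied by bin number.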

Protein stability index of substitutions, site by site:
V2: G 3.5, F 2.03, N 4.52, A 2.96, D 4.22, M 2.7, Q 3.18, H 3.07, E 3.98, K 3.07, P 3.05, C 2.96, I 2.22, L 2.79
F1: N 3.95, H 4, M 3.6, W 2.51, P 4.57, I 2.84, K 3.92, L 3.29, S 4.09, T 4.37, Q 3.52, Y 1.54, A 4.1, V 3.59, E 4.27, C 2.61, D 4.6, G 4.05, R 4.38

Variants of: B2
Assay: as above
Details: c terminus: a fixed tail appended

Protein stability index: each site, then its substitutions
S10: H 2.91, W 1.6, Y 4.19, N 2.08, V 1.56, F 2.65, D 2.94, M 2.39, A 2.06, Q 2.26, L 1.57, G 2.08, I 2.63, C 2.73, R 1, E 2.57, P 2.05, T 1.97, K 2.02
P22: L 2.73, M 2.51, H 3.14, V 2.17, I 2.03, W 2.05, S 2.55, G 3.29, K 2.43, T 2.49, A 2.66, C 2.47, E 3.09, F 2.41, Y 2.45, R 2.62, D 4.1, Q 2.64, N 3.16
H21: T 3.51, L 1.51, Q 4.58, A 3.18, E 3.34, F 1.63, I 2.75, K 2.7, S 2.86, Y 2.06, R 1.69, N 2.31, C 2.65, D 2.6, P 3.07
C18: A 3.46, R 3, V 3.48, Q 3.6, N 4.32, L 3.35, S 3.79, W 2.44, M 2.54, D 3.65, E 3.62, K 3.44, Y 1.69, P 3.55, F 1.93, I 3.34, H 2.94, T 3.35
L20: Y 2.05, A 2.37, D 2.73, N 2.56, W 1.82, V 2.17, F 2.13, T 2.12, H 3.1, S 2.49, M 2.73, G 1.85, E 3.1, P 3.73, K 2.04, Q 2.34, I 2.79, C 2.44
E13: L 2.07, Y 1.54, S 2.26, A 2.3, F 1.71, K 2.21, W 1.03, C 2.14, V 1.78, T 2.22, R 2.44, H 2.05, M 1.89, D 2.57, N 1.75, Q 1.74, I 1.99, P 2.31
G12: P 1.96, E 2.1, L 2.08, N 1.67, R 1.69, A 2, C 2.38, K 1.59, D 2.52, F 1.34, Y 1.53, M 1.88, T 1.87, Q 2.8, I 1.47, H 2.69
V14: A 3.06, C 2.94, F 1.94, P 2.45, Q 2.67, G 3.14, S 2.88, L 1.97, I 2.48, Y 2.08, R 2.24, T 2.87, E 3.31, K 2.64, M 2.23, D 2.25, W 2.42, H 2.48, N 2.46
Q8: P 2.15, R 2.83, L 1.77, G 2.42, M 2.83, F 2.38, I 2.38, D 2.6, V 2.73, E 1.97, H 2.03, W 2.65, Y 1.7, N 2.54, T 3.04
P23: E 3.48, K 2.35, I 2.24, N 2.85, T 2.02, C 3.96, F 2.32, W 2.34, S 2.47, A 2.34, H 2.66, L 2.38, Y 2.07, M 2.2, D 3.71, Q 2.29, V 2.87, G 3.38
C16: R 3.1, P 3.31, Q 3.99, S 2.03, M 2.9, W 2.38, A 3.38, K 3.58, N 3.1, F 2.16, H 3.05, V 2.85, E 4.02, L 2.94, G 4.1, D 3.88, T 2.96, Y 3.13, I 1.93
S15: G 2.14, E 3.32, K 2.8, L 1.72, F 1.67, P 2.67, N 2.62, R 1.63, D 3.99, Y 2.22, V 2.48, T 1.41, Q 1.96, W 1.02, C 2.28, I 1.63, H 1.64
R24: F 3.39, A 3.79, I 3.75, C 3.86, N 4.28, Q 4.05, V 3.23, Y 3.87, T 3.99, M 3.31, K 3.26, D 4.59, E 4.59, L 3.85, S 4.29, W 2.89, G 4.32, H 4.04
D9: M 2.15, G 2.56, P 1.42, L 2.18, E 3.09, R 1.89, I 1.51, W 1.52, F 2.47, S 1.82, K 2.43, A 2.73, N 1.98, C 2.97, T 2.14, H 2.38, Y 1.67
Q19: N 2.63, P 3.84, K 2.07, L 2.12, Y 2.71, F 2.71, H 1.52, S 2.5, I 2.15, V 1.96, M 2.13, A 2.45, W 2.48, T 2.36, E 3.08, D 2.25, C 2.07, G 2.81
Q17: R 2.35, L 2.17, H 1.74, F 2.21, C 2.32, K 3.52, G 1.62, Y 1.76, N 1.47, D 2.83, T 1.81, S 1.33, W 2.6, P 2.21, I 1.76, M 3.13, V 2.44, A 1.66
S11: L 2.04, I 1.71, C 2.5, G 3.17, F 1.58, Q 1.63, M 2.12, A 2.53, E 2.42, W 1.28, H 2.16, R 1.66, T 2.1, P 1.72, K 2.28, N 2.55, Y 1.52, V 1.45, D 2.13
